Molecular target: cyclophilin D (CypD, PPIF) with a K133I mutation

half-maximal inhibition of Ca2+-induced PT pore opening, calcium retention capacity (CRC) assay on isolated liver mitochondria: 40 nM
Substance: cyclosporine (cyclosporin A) (peptide)
